Results published in patent US20230002480A1.

Columns and labels:
Assay in all cases: cell-based or functional assay
[1] = biological target: HIV-1 Env of pseudovirus R2184.c04 (clade CRF01_AE) (HIV-1)
[2] = biological target: HIV-1 Env of pseudovirus C3347.c11 (clade CRF01_AE) (HIV-1)
[3] = biological target: HIV-1 Env of pseudovirus C2101.c01 (clade CRF01_AE) (HIV-1)
[4] = biological target: HIV-1 Env of pseudovirus X1254_c3 (clade G) (HIV-1)
[5] = biological target: HIV-1 Env of pseudovirus 235-47 (clade CRF02_AG) (HIV-1)
[6] = biological target: HIV-1 Env of pseudovirus P0402_c2_11 (clade G) (HIV-1)
[7] = biological target: HIV-1 Env of pseudovirus T278-50 (clade CRF02_AG) (HIV-1)

Substance PG16 (antibody) has an IC50, titer in TZM.bl cells [1] of 0.67 µg/mL, an IC80, titer in TZM.bl cells [1] of over 50 µg/mL and an IC50, titer in TZM.bl cells [2] of 8 ng/mL. It also gave an IC80, titer in TZM.bl cells [2] of 0.045 µg/mL, an IC50, titer in TZM.bl cells [3] of 0.012 µg/mL and an IC80, titer in TZM.bl cells [3] of 0.238 µg/mL. The IC50, titer in TZM.bl cells [4] was 0.023 µg/mL, the IC80, titer in TZM.bl cells [4] was 0.218 µg/mL and the IC50, titer in TZM.bl cells [5] was 0.092 µg/mL. The IC80, titer in TZM.bl cells [5] was 4.51 µg/mL, the IC50, titer in TZM.bl cells [6] was 0.025 µg/mL and the IC80, titer in TZM.bl cells [6] was 0.411 µg/mL. It also gave an IC50, titer in TZM.bl cells [7] of 0.227 µg/mL and an IC80, titer in TZM.bl cells [7] of 18.6 µg/mL.
